# Test results from paper PMC2760576.
# Key:
# [1] = molecular target: integrin α6β1 (human (endogenous in FHCC98 and SMMC-7721)) (UniProt P05556)
# [2] = molecular target: integrin α6β1 (human (endogenous in FHCC98 and SMMC-7721)) (UniProt P05556); remark: listed apart in the source
# [3] = molecular target: integrin α6β1 (human (endogenous in FHCC98 and SMMC-7721)) (UniProt P05556); remark: listed apart in the source
# [4] = molecular target: integrin α6β1 (human (endogenous in FHCC98 and SMMC-7721)) (UniProt P05556); remark: listed apart in the source
# UniProt P05556, sequence (P05556 whole entry, looked up): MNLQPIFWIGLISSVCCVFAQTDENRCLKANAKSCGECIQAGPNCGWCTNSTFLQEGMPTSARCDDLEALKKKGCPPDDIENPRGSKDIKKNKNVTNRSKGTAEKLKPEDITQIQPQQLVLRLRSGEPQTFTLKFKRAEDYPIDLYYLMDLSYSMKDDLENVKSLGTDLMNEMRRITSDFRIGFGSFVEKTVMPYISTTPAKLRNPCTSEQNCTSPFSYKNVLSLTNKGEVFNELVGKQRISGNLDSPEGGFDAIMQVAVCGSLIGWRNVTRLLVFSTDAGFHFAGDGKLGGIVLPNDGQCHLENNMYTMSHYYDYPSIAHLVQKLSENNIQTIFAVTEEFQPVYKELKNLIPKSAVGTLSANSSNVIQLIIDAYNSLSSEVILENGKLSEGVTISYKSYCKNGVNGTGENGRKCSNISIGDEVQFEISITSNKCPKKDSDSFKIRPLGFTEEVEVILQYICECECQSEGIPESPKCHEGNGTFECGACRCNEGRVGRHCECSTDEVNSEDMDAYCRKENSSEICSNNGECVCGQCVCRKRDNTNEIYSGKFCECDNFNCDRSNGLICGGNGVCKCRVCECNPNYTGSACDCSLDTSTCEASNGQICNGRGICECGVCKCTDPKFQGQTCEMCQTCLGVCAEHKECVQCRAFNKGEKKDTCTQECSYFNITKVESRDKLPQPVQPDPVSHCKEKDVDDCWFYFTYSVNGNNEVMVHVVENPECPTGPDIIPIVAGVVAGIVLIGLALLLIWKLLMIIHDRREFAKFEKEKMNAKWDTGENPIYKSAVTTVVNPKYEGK
substance,measurement,setting,value
HAb18G/CD147 (from UniProt P35613 22-385) (natural protein),"Matrigel invasion of FHCC98 cells, reduction of invasive cell numbers versus the blank group; sncRNA + GoH3 + 3S3",[1],34.9%
same,"Matrigel invasion of FHCC98 cells, reduction of invasive cell numbers versus the blank group; sncRNA + anti-α6 mAb GoH3",[1],32.4%
same,"Matrigel invasion of FHCC98 cells, reduction of invasive cell numbers versus the blank group; sncRNA + anti-β1 mAb 3S3",[1],31.1%
same,"gelatin zymography, reduction of the density of MMPs of FHCC98 cells versus the blank group; sncRNA + GoH3 + 3S3",[2],29.1%
same,"gelatin zymography, reduction of the density of MMPs of FHCC98 cells versus the blank group; sncRNA + anti-α6 mAb GoH3",[2],32.5%
same,"gelatin zymography, reduction of the density of MMPs of FHCC98 cells versus the blank group; sncRNA + anti-β1 mAb 3S3",[2],34.8%
same,"Matrigel invasion of 7721 cells, reduction of invasive cell numbers versus the blank control group; anti-α6 mAb",[3],27.2%
same,"gelatin zymography, reduction of MMP density of 7721 cells versus the blank control group; anti-α6 mAb",[4],22.8%
same,"gelatin zymography, reduction of the density of MMPs of FHCC98 cells versus the blank control group; anti-α6 mAb",[4],18.8%
